This passage reports Kd, kon and koff results from patent US20150299335A1 (X BODY, published 2015).

Assay [1] has as its target T1, HER2 (UniProt P04626 23-652, limits assumed).
T1 construct: also called receptor tyrosine-protein kinase erbB-2
The experiment in a line: surface plasmon resonance (Biacore).

Assay [2] addresses T1, HER2. In words: surface plasmon resonance (Biacore Kinetics), table under the sensorgrams [table at the bottom].
Assay [3] addresses T1, HER2. The experiment in a line: saturation binding curve, CPM against Her 2 (nM), 0 to 50 nM, plateau about 470 CPM; the text does not name the assay [left graph].
The target in assay [4] is T1, HER2. In words: saturation binding curve, CPM against Her 2 (nM), 0 to 50 nM, plateau about 470 CPM; the text does not name the assay [upper left graph].

B1: B8 anti-HER2 VH domain (other)
VH: EVQLVESGAEVKEPGASVKVSCKSSGYSFTGNYMHWVRQAPGQGLEWMGWMNPKSGGTYYAQKFQGRVTMTWDTSISTAYMELSGLTSDDTAVYYCARWARGSTSPHGLDVWGQGTLVTVSS
notes: Stand-alone antibody VH domain with no light chain; also called B8 VH domain; B8 VH
Consider B1, for which the Kd – broadly, the free concentration of one partner at which half of the binding sites on the other are occupied at equilibrium, for simple one-to-one binding – in assay [1] was 1.2 nM; in assay [2], 1.2 nM; in assay [3], 1.4 nM; in assay [4], 1.4 nM. Moreover, the kon in assay [1] and in assay [2] was 139000 M⁻¹ s⁻¹ throughout. Besides, the koff (commonly the first-order rate constant of dissociation) in assay [2] was 0.000167 s⁻¹.
